Reference: paper PMC8961534, “Interaction with the Assembly Chaperone Ump1 Promotes Incorporation of the β7 Subunit into Half-Proteasome Precursor Complexes Driving Their Dimerization” (Biomolecules, 2022)

Assays:
[1] = target: ^17–148Ump1-6His (S. cerevisiae) (UniProt P38293); experiment: fluorescence microscopy-based on-bead binding assay; Ump1-6His or ^17–148Ump1-6His from E. coli extracts bound to Ni-NTA beads and washed (20 mM imidazole); extracts with mNeonGreen fusion proteins, adjusted by fluorescence, added 1 h, 4 °C; beads imaged, quantified with Fiji (n = 5), empty vector background subtracted
[2] = target: T1, β7-∆CTE (β7 without C-terminal extension), untagged (S. cerevisiae, UniProt P30657 1-247); experiment: pull-down; native extracts of E. coli expressing Ump1-6His incubated with Ni-NTA resin, washed, then incubated with purified untagged β7 versions; elution with imidazole, anti-β7 and anti-Ump1 Western blotting, LI-COR quantification (n = 3); details: both partners purified
T1 construct: β7/Pre4, S. cerevisiae, C-terminal extension (CTE, the last 19 residues) deleted; propeptide present; source: E. coli, purified
T1 sequence (looked up): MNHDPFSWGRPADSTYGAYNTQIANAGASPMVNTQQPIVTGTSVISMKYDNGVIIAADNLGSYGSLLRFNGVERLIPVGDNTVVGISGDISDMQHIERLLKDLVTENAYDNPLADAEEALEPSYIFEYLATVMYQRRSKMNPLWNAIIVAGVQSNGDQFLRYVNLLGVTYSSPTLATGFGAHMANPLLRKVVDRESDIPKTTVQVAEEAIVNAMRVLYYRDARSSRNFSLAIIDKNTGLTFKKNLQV

Work on “full-length β7 (^1–266β7) fused to mNeonGreen and 2HA (from UniProt P30657 1-266) (natural protein)” yielded a reduction in binding efficiency against full-length Ump1 [1] of 50%.

B1: full-length Ump1-6His (natural protein, S. cerevisiae, UniProt P38293 1-148, looked up)
chain: MNIVPQDTFKSQVSTDQDKSVLSSAVPSLPDTLRQQEGGAVPLSTQLNDRHPLESTLKNWETTQRQRQMEQYRQIFGIAEPMKRTMEMEIVNRTDFNPLSTNGSIHRDILLNKECSIDWEDVYPGTGLQASTMVGDDVHSKIEKQLGI
notes: source: E. coli; not shown: 6His, C-terminal, kept
B1: binds [2].
